Measured values: patent US6906176B2, “Enterokinase cleavage sequences” (Dyax Corp., priority 2000, dated 2005)
Marks after values point to notes of the source that are not given here.

Key:
Type in all cases: biochemical
[1] = target: T1, recombinant light chain enterokinase (Bos taurus, UniProt P98072); assay: Cleavage site test: digestion of synthetic test peptides to completion, HPLC and mass spectroscopy; settings: for extent of enterokinase digestion: 36-48 hrs with 20U enterokinase, HPLC; for recovered product, product peak 1 / recovered product, product peak 2: 60 to 100 μg peptide digested to completion (36-48 hrs) with 20U enterokinase, reverse phase HPLC, electrospray MS
T1 construct: enterokinase cleavage using 30 nM recombinant light chain enterokinase (Novagen); purchased Novagen, Madison, Wis
T1 sequence (P98072 801-1035 limits assumed): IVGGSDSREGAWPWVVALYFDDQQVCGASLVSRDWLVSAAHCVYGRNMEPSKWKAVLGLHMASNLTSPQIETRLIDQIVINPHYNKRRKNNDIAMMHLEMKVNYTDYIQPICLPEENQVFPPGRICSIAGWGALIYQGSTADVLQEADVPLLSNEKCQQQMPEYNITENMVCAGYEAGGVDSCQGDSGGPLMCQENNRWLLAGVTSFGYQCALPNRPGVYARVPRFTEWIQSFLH
Procedure: To further test the predicted cleavage site as well as the rates and extent of cleavage, seven test peptides shown in Table 6 were chemically synthesized, contacted with enterokinase, and analyzed by HPLC and mass spectrometric analysis.
To test the predicted cleavage site, i.e., following the acid-base dipeptide motif, 60 to 100 μg of each test peptide was digested to completion (36-48 hrs) with 20U of recombinant light chain enterokinase (Novagen) and analyzed by reverse phase HPLC. Product peaks were eluted with a water/acetonitrile (H2O/ACN) gradient and identified by electrospray mass spectroscopy.
“% ACN” estimates the position in the H2O/Acetonitrile gradient at which the indicated cleavage fragment eluted. The expected product peaks for GDDDDK (residue 1-6 SEQ ID NO:197) and NKAKDR (residues 1-6, SEQ ID NO:201) were not detected by HPLC, but the cleavage site could be determined from analyzing the alternate product peak, i.e., the peptide to the C-terminal side of the cleavage site.

[2] = target: T1, recombinant light chain enterokinase; assay: Relative rate of cleavage of synthetic peptides by HPLC; settings: relative to GDDDDK-βNA; peptides tested individually at 500 μM
[3] = target: T2, enterokinase (Bos taurus, UniProt P98072); assay: Substrate competition with reference peptide GDDDDK-βNA; settings: for reference peptide rate (Vb): rate of reference peptide GDDDDK-βNA 250 μM in competition with the test peptide 250 μM; for ratio (Va/Vb): test peptide cleavage rate to reference peptide cleavage rate, 250 μM each; for ratio kcat/Km, times greater than that of the reference peptide: tested in competition at 250 μM
T2 construct: provide a substrate specifically recognized and cleaved by recombinant light chain enterokinase
T2 sequence (P98072 801-1035 limits assumed): as above
Procedure: Rates of substrate hydrolysis depends on several factors, namely, concentration of enzyme and substrate, Km (Michaelis constant) values, and kcat (catalytic rate constant) values. One way to compare the relative efficiencies with which a protease hydrolyses two substrates (a and b) is to simultaneously incubate both substrates in a single reaction with the enzyme and measure the rates of product formation for each (Va and Vb). If the total product formation is low (<10%), the starting concentrations of the two competing substrates are the same, and the reaction is performed at steady-state: Va/Vb=(kcat/Km)a/(kcat/Km)b Relative ratios of kcat/Km can be determined from relative rates of substrate hydrolysis.
To compare the relative efficiency of hydrolysis by enterokinase, reference peptide (GDDDDK-βNA, 250 μM, SEQ ID NO:203) was incubated simultaneously with one of the test peptides (250 μM), treated with enterokinase, and the relative rate of product formation measured. The products were quantitated by HPLC and initial cleavage rates calculated.

[4] = target: T1, recombinant light chain enterokinase; assay: Relative rate of cleavage of synthetic peptides by HPLC; settings: about 500 μM peptide; for cleavage rate compared with the other peptides (in words): 50 nM enterokinase; for Cleavage Rate: 50 nM recombinant light chain enterokinase
Procedure: Peptides were digested with enterokinase and aliquots tested at timed intervals by HPLC to quantitate the extent of cleavage. For each test peptide, about 500 μM of peptide were digested with 50 nM of recombinant light chain enterokinase. The seven synthetic peptides were compared with a commercially available standard EK cleavage substrate, GDDDDK-β-naphthylamine (GDDDDK-βNA, SEQ ID NO:203; from BACHEM, King of Prussia, Pa.), having a fluorescent leaving group that increases in fluorescence when it is cleaved.

[5] = target: T1, recombinant light chain enterokinase; assay: Phage ELISA kinetics of enterokinase cleavage of phage isolates; settings: streptavidin-bound phage, 30 nM or 130 nM enterokinase, 30 minutes
Procedure: FIG. 1 and FIG. 2 show the time course of enterokinase cleavage of phage isolates from five rounds of screening a substrate phage library. The tested isolates were those having recurring sequences among 90 sequenced isolates. The isolates are tested in comparison with an isolate (5-H11) containing the known enterokinase cleavage sequence DDDDK and an unselected phage displaying a polypeptide not recognized by enterokinase.
Phage displaying each of the sequences shown in Table 5 were tested individually for kinetics of enterokinase cleavage using a phage ELISA. Streptavidin-bound phage were treated with either 30 nM or 130 nM enterokinase for 30 minutes. The time courses of phage release are shown in FIG. 1 (release at 30 nM EK) and FIG. 2 (release at 130 nM EK). Phage from the unselected substrate library were used as a control, i.e., isolate 5-F08. (SEQ ID NO:196).

Substance	extent of enterokinase digestion [1]	extent of enterokinase digestion ([1]; listed as negative control peptide)	rate relative to standard substrate [2]	reference peptide rate (Vb) [3]	ratio (Va/Vb) [3]	ratio kcat/Km, times greater than that of the reference peptide [3]	recovered product, product peak 1 [1]	recovered product, product peak 2 [1]	cleavage rate compared with the other peptides (in words) [4]	Cleavage Rate [4]	enterokinase cleavage rate of phage isolate (phage release) [5]
AVLSNVMFT (AVLSNVMFI; negative control in EK cleavage experiment) [AVLSNVMFII, negative control test peptide, reference compound]	not cleaved at all	No cleavage									
DINDDRSLF (synthetic enterokinase cleavage sequence)			3.1	0.006	30	30	DINDDR	SLF	cleaved significantly more rapidly than the two control peptides	1/43	
DINDDRSLFSESS (synthetic enterokinase cleavage sequence) [Isolate 5-H04, round 5 phage isolate]											most readily cut
GDDDDK-β-naphthylamine [GDDDDK-βNA, reference compound]			(1.0)						cleaved at nearly equal rates and more rapidly than the remaining three peptides tested	0.46 nmol/min	
GDDDDKIYV (natural enterokinase cleavage sequence) [reference compound]			0.7	0.027	1.0			IYV	cleaved at nearly equal rates and more rapidly than the remaining three peptides tested	0.34 nmol/min	
GNYTDRMFI (synthetic enterokinase cleavage sequence)			1.8	0.011	3.5	3.5	GNYTDR	MET	cleaved significantly more rapidly than the two control peptides	0.81 nmol/min	
GNYTDRRFI (synthetic enterokinase cleavage sequence)			0.4				GNYTDR	RFI		0.18 nmol/min	
GNYTDRYFI (commercial synthetic enterokinase cleavage substrate)			0.5				GNYTDR	YFI		0.24 nmol/min	
MGDDDDKIYVYKT (synthetic enterokinase cleavage sequence) [Isolate 5-H11, reference compound]											slower than for at least three of the other isolates
NKAKDRMFI (synthetic enterokinase cleavage sequence)			0.6					MFI		~0.26* nmole/min.	
